# Measured values: patent US20090004190A1, “Rage Fusion Proteins And Methods Of Use” (priority 2006, published 2009)
# Several values for one entry are separate records, joined by “and”; a condition that tells them apart may be missing. Identical values can stand only once.
# T1: amphoterin (Ampho) (Homo sapiens, UniProt P09429)
# T1 sequence (P09429 1-215): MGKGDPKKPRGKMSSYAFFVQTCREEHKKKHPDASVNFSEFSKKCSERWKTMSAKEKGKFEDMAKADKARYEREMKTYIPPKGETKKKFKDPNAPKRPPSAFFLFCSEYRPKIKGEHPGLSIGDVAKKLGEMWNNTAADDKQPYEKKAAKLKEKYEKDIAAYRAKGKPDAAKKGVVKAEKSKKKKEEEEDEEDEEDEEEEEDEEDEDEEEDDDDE
# T2: S100b (S100) (Homo sapiens, UniProt P04271)
# T2 sequence (P04271 1-92): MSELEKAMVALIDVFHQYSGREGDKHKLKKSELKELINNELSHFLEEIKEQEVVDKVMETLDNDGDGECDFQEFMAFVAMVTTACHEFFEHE
# B1: mouse sRAGE: mouse soluble RAGE used as comparator in the AD mouse model (protein, UniProt Q62151 23-340, looked up)
# extracellular domain: GQNITARIGEPLVLSCKGAPKKPPQQLEWKLNTGRTEAWKVLSPQGGPWDSVARILPNGSLLLPATGIVDEGTFRCRATNRRGKEVKSNYRVRVYQIPGKPEIVDPASELTASVPNKVGTCVSEGSYPAGTLSWHLDGKLLIPDGKETLVKEETRRHPETGLFTLRSELTVIPTQGGTHPTFSCSFSLGLPRRRPLNTAPIQLRVREPGPPEGIQLLVEPEGGIVAPGGTVTLTCAISAQPPPQVHWIKDGAPLPLAPSPVLLLPEVGHEDEGTYSCVATHPSHGPQESPPVSIRVTETGDEGPAEGSVGESGLGTLA
# modifications: extracellular domain
# notes: mouse soluble RAGE used as comparator in the AD mouse model
# B2: TTP-3000: three domain RAGE fusion protein: human RAGE V domain and interdomain linker (to residue 136) fused to CH2 and CH3 domains of human IgG1 (protein)
# chain: QNITARIGEPLVLKCKGAPKKPPQRLEWKLNTGRTEAWKVLSPQGGGPWDSVARVLPNGSLFLPAVGIQDEGIFRCQAMNRNGKETKSNYRVRVYQIPGKPEIVDSASELTAGPSVFLFPPKPKDTLMISRTPEVTCVVVDVSHEDPEVKFNWYVDGVEVHNAKTKPREEQYNSTYRVVSVLTVLHQDWLNGKEYKCKVSNKALPAPIEKTISKAKGQPREPQVYTLPPSRDELTKNQVSLTCLVKGFYPSDIAVEWESNGQPENNYKTTPPVLDSDGSFFLYSKLTVDKSRWQQGNVFSCSVMHEALHNHYTQKSLSLSPGK
# How the values were obtained:
# [1] = tested on: transgenic mice expressing human Swedish mutant APP; assay: Mouse model of AD (APP transgenic mice): amyloid deposition and Morris water maze; assay type: in vivo; settings: treated for 3 months, vs vehicle and human IgG1
# Protocol: Experiments were performed to evaluate whether TTP-4000 could affect amyloid formation and cognitive dysfunction in a mouse model of AD. The experiments utilized transgenic mice expressing the human Swedish mutant amyloid precursor protein (APP) under the control of the PDGF-B chain promoter. Over time, these mice generate high levels of the RAGE ligand, amyloid beta (Aβ).
# The APP mice (male) used in this experiment were designed by microinjection of the human APP gene (with the Swedish and London mutations) into mouse eggs under the control of the platelet-derived growth factor B (PDGF-B) chain gene promoter. The mice were generated on a C57BL/6 background and were developed by Molecular Therapeutics Inc. Animals were fed ad libitum and maintained by brother sister mating. The mice generated from this construct develop amyloid deposits starting at 6 months of age. Animals were aged for 6 months and then maintained for 90 days and sacrificed for amyloid quantification.
# APP transgenic mice were administered vehicle or TTP4000 every other day [qod (i.p.)] for 90 days starting at 6 months of age. At the end of the experiment, animals were sacrificed and examined for Aβ plaque burden in the brain (i.e., plaque number). A 6-month control APP group was used to determine the baseline of amyloid deposits. In addition, at the end of the study, the animals were subjected to behavioral (Morris water maze) analysis. The investigators were blinded to the study compounds. Samples were given to the mice at 0.25 ml/mouse/every other day.
# For histological examination, the animals were anesthetized with an intraperitoneal injection (IP) of sodium pentobarbital (50 mg/kg). The animals were transcardially perfused with 4° C., phosphate-buffered saline (PBS) followed by 4% paraformaldehyde. The brains were removed and placed in 4% paraformaldehyde over night. The brains were processed to paraffin and embedded. Ten serial 30-μm thick sections through the brain were obtained. Sections were subjected to primary antibody overnight at 4° C. (Aβ peptide antibody) in order to detect the amyloid deposits in the brain of the transgenic animals (Guo et al., J. Neurosci., 22:5900-5909 (2002)). Sections were washed in Tris-buffered saline (TBS) and secondary antibody was added and incubated for 1 hour at room temperature. After washing, the sections were incubated as instructed in the Vector ABC Elite kit (Vector Laboratories) and stained with […] (DAB). The reactions were stopped in water and cover-slipped after treatment with xylene. The amyloid area in each section was determined with a computer-assisted image analysis system, consisting of a Power Macintosh computer equipped with a Quick Capture frame grabber card, Hitachi CCD camera mounted on an Olympus microscope and camera stand. NIH Image Analysis Software, v. 1.55 was used. The images were captured and the total area of amyloid was determined over the ten sections. A single operator blinded to treatment status performed all measurements. Summing the amyloid volumes of the sections and dividing by the total number of sections was done to calculate the amyloid volume.
# For quantitative analysis, an enzyme-linked immunosorbent assay (ELISA) was used to measure the levels of human total Aβ, Aβtotal and Aβ1-42 in the brains of APP transgenic mice (Biosource International, Camarillo, Calif.). Aβtotal and Aβ1-42 were extracted from mouse brains by guanidine hydrochloride and quantified as described by the manufacturer. […]
# [2] = molecular target: T3, amyloid-beta (Abeta) (Amyloid Beta (1-40)) (Homo sapiens, UniProt P05067); assay: In vitro ligand binding (ELISA) to immobilized amyloid-beta; settings: ligand 5 micrograms per well; FIG. 7
# T3 construct: Amyloid Beta (1-40) from Biosource; purchased Biosource
# T3 sequence (P05067 672-711): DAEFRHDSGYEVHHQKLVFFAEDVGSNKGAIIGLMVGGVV
# Protocol: (§1) For example, the RAGE fusion protein may be used in a binding assay to identify potential RAGE ligands. In one example embodiment of such a binding assay, a known RAGE ligand may coated onto a solid substrate (e.g., Maxisorb plates) at a concentration of about 5 micrograms per well, where each well contains a total volume of about 100 microliters (μL). The plates may be incubated at 4° C. overnight to allow the ligand to absorb. Alternatively, shorter incubation periods at higher temperature (e.g., room temperature) may be used. […] The RAGE fusion protein bound to the immobilized ligand may be detected in a variety of ways. […] The bound complex may be detected by adding the alkaline phosphatase substrate, para-nitrophenylphosphate (PNPP), and measuring conversion of PNPP to para-nitrophenol (PNP) as an increase in absorbance at 405 nm. […] In the absence of ligand (i.e., coating with only BSA) there was no increase in absorbance. […] Binding was detected by the addition of an immunodetection complex containing a monoclonal mouse anti-human IgG1 diluted 1:11,000 to a final assay concentration (FAC) of 21 ng/100 μL, a biotinylated goat anti-mouse IgG diluted 1:500, to a FAC of […], and an avidin-linked alkaline phosphatase. […]
# [3] = tested on: recurrent diabetes in NOD/LtJ mice with syngeneic islet transplants; assay: Syngeneic islet transplantation in diabetic NOD mice; assay type: in vivo, mouse; settings: 300 ug LD + 100 ug qod ip
# From the text: Spontaneous autoimmune non-obese diabetic mice (NOD/LtJ) (12-25 weeks old) served as recipients for islet cells, while young pre-diabetic NOD/LtJ mice (6-7 weeks old) served as donors in syngeneic islet transplantation. Islets for transplantation were isolated as described above in Section A (Allogeneic Islet Transplantation).
# Diabetic NOD/LtJ mice received islet grafts within 2 days of the diagnosis of diabetes. 500-600 freshly isolated islets (approximately 550 islet equivalents) from donor mice were picked up with an infusion set and transplanted into the subcapular space of the right kidney.
# Test compounds were administered as soon as the islets were transplanted and continued for approximately 8 weeks.
# Islet graft function was monitored by serial blood glucose measurements daily for the first 2 weeks after islet transplantation, followed by every other day thereafter. Reversal of diabetes was defined as blood glucose less than 200 mg/dl on two consecutive measurements. Percentage graft loss was determined when blood glucose exceeded 250 mg/dl on two consecutive measurements.
# amphoterin (Ampho) = molecular target: T1, amphoterin (Ampho); assay: In vitro ligand binding (ELISA) to immobilized amphoterin; settings: ligand 5 micrograms per well; FIG. 7
# Protocol: as §1
# S100b (S100) = molecular target: T2, S100b (S100); assay: In vitro ligand binding (ELISA) to immobilized S100b; settings: ligand 5 micrograms per well; FIG. 7
# Protocol: as §1
Molecule,Aβ plaques in the brain ([1]; FIG. 14A),cognitive dysfunction (Morris water maze) ([1]; FIG. 14B),binding to immobilized amyloid-beta (absorbance at 405 nm) [2],"day of graft loss, Mean [3]","day of graft loss, each animal ([3]; blood glucose exceeded 250 mg/dl)",binding to immobilized amphoterin (absorbance at 405 nm) (amphoterin (Ampho)),binding to immobilized S100b (absorbance at 405 nm) (S100b (S100))
B1,fewer Aβ plaques,less cognitive dysfunction,–,–,–,–,–
B2,–,–,specifically interact,38.43 days,46 days and 42 days and 41 days and 34 days and 32 days and 30 days and 44 days,specifically interact,specifically interact
